Experimental data reported in patent US20150038419A1 (US Dept. of Health and Human Services, published 2015).

Columns and labels:
[1] = target: T1, elastase (human; for SPR purified from human sputum) (human, UniProt P08246 30-267); assay: cell-based or functional assay
T1 sequence (looked up): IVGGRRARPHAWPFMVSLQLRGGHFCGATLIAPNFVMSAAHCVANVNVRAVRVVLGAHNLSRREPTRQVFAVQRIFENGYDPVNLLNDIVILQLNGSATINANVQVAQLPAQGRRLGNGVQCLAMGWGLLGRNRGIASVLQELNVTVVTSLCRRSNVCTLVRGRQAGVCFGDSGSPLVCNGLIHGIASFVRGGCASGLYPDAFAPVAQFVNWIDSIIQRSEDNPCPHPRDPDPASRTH

[2] = target: T2, cathepsin G (human) (human, UniProt P08311 21-244); assay: cell-based or functional assay
T2 sequence (looked up): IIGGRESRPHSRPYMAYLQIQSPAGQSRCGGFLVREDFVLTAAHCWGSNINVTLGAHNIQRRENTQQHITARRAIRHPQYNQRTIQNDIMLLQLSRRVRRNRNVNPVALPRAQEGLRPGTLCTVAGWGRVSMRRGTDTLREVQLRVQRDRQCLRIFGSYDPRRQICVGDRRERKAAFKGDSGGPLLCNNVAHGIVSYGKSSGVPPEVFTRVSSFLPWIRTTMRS

[3] = target: plasmin (human) (human, UniProt P00747 97-810); assay: cell-based or functional assay
[4] = target: kallikrein (human) (human, UniProt P03952 20-638, limits assumed); assay: cell-based or functional assay
[5] = target: trypsin (sequencing grade, Roche) (human); assay: cell-based or functional assay
[6] = target: skin β-tryptase (human) (human, UniProt Q15661 31-275); assay: cell-based or functional assay
[7] = target: T3, human activated coagulation factor X (FXa) (human, UniProt P00742 41-179; P00742 235-488); assay: cell-based or functional assay
[8] = target: coagulation Factor XIa (FXIa) (human, UniProt P03951 19-625); assay: cell-based or functional assay
[9] = target: T4, coagulation Factor VIIa (FVIIa), recombinant (UniProt P08709 61-466); assay: SPR (Biacore T100), rSimukunin immobilized on CM5
T4 construct: mature
T4 sequence (looked up): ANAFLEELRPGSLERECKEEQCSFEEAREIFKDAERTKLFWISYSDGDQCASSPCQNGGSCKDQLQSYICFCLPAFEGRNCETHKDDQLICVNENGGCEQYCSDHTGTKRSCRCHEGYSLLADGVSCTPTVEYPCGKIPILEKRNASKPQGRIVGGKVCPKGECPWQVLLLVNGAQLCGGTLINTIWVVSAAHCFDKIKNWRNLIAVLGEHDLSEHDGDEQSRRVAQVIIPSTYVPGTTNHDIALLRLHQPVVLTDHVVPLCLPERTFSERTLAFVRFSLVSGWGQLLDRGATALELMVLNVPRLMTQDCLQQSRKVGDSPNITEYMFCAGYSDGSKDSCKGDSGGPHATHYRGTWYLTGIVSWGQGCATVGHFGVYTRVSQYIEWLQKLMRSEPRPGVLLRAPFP

[10] = target: T5, coagulation Factor XIIIa (FXIIIa) (UniProt P00488 39-732, limits assumed); assay: SPR (Biacore T100), rSimukunin immobilized on CM5
T5 construct: mature
T5 sequence (looked up): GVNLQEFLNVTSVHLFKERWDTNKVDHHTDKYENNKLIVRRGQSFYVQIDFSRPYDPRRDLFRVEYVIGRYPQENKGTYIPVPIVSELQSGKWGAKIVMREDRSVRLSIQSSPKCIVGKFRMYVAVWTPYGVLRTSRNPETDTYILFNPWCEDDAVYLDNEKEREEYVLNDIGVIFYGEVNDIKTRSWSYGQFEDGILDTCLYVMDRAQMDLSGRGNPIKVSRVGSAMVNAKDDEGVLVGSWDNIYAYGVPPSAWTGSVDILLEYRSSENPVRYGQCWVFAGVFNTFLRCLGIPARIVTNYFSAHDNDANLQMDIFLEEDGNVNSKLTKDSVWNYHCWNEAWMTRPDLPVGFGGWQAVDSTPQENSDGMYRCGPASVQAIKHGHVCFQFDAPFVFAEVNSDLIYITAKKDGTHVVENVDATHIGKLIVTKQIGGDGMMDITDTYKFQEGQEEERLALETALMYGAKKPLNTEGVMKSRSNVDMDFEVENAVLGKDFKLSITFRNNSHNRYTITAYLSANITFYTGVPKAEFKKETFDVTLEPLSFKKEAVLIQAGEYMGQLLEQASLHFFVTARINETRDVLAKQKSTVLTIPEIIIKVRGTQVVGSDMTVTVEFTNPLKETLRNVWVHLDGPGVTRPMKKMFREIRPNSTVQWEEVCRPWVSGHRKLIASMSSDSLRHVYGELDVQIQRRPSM

[11] = target: T6, coagulation Factor X (FX), zymogen precursor of FXa (UniProt P00742 41-488); assay: SPR (Biacore T100), rSimukunin immobilized on CM5
T6 construct: mature; also called zymogenic form of FX

[12] = target: T3, human activated coagulation factor X …; assay: SPR (Biacore T100), rSimukunin immobilized on CM5, FXa as analyte, 1:1 Langmuir fit
Procedure: (§1) Data were fitted using a […] binding model (Langmuir). RU: resonance units.
(§2) Surface plasmon resonance (SPR) assays. SPR experiments were conducted using a T100 instrument (Biacore Inc., Uppsala, Sweden) following the manufacturer's instructions. Sensor CM5, amine coupling reagents, and buffers were also purchased from Biacore Inc. (Piscataway, N.J., USA). IBS P (10 mM Hepes, pH 7.4, 150 mM NaCl, and 0.005% (v/v) P20 surfactant) was used as the running buffer for all SPR experiments, which were carried out as previously described (Albrecht et al., 1983, Hoppe Seylers Z Physiol Chem; 364:1697-1702). For analytes, FVIIa (recombinant) was purchased from American Diagnostica (Stamford, Conn.); FX, FXa (human, bovine, mouse), DEGR-FXa (human), des-Gla-FXa (human), FIXa, FXIa, FXIIIa, and thrombin were purchased from Haematologic Technologies, Inc. (Essex Junction, Vt.); elastase (purified from human sputum) was purchased from Molecular Innovations, Inc. (Novi, Mich.). All enzymes were of the highest available purity. For immobilization and kinetic analysis, rSimukunin (10 μg/ml) in acetate buffer pH 5.0 was immobilized over a CM5 sensor via amine coupling, resulting in a final immobilization of 475.3 RU. Kinetic experiments were carried out with a contact time of 180 seconds at a flow rate of 30 μl/minute at 25° C. rSimukunin-FXa complex dissociation was monitored for 1800 seconds, and the sensor surface was regenerated by a pulse of 30 seconds of 20 mM HCl at 30 μl/minute. In other experiments, other coagulation factors or enzymes were used as analytes. Blank flow cells were used to subtract the buffer effect on sensorgrams.

[13] = target: T1, elastase (human; for SPR purified from …); assay: SPR (Biacore T100), rSimukunin immobilized on CM5, elastase as analyte, 1:1 Langmuir fit
Procedure: as §1, §2

[14] = target: T1, elastase (human; for SPR purified from …); assay: calculated by Cheng-Prusoff from the enzyme-inhibition IC50 and the substrate Km (250 uM substrate)
Procedure: (§3) The Kₘ for the elastase substrate was 38.5±3.3 μM, and the estimated Kᵢ was ˜0.65 nM. For FXa the substrate Kₘ was 161.6±17.4 μM, and the estimated Kᵢ was ˜2.1 nM. For Cathepsin G the Kₘ was 188±20 μM, and the Kᵢ was 100 nM. A general chymotrypsin substrate was used to assess Cathepsin G activity; as this substrate is not optimized for Cathepsin G it is likely that our measurement of the Kᵢ underestimates the effect of rSimukunin. Further studies of the effect of rSimukunin on Cathepsin G will be performed.
(§4) Enzymes, at the concentrations given in Table 1, were incubated with the indicated concentration of rSimukunin for five minutes at 30° C., followed by addition of substrate (250 μM final concentration). The amount of enzyme used in the assays was the lowest possible to give a linear substrate hydrolysis rate in the assays (r2>0.95). Substrate hydrolysis was followed in a Tecan Infinite M200 96-well plate fluorescence reader (Tecan group Ltd, Switzerland) using 365 nm excitation and 450 nm emission wavelength with a cutoff at 435 nm for 20 min at 30° C. Wells without enzyme were used to monitor spontaneous substrate hydrolysis and protease contamination in the inhibitor preparation. All experiments were performed in triplicate (for each enzyme and each concentration of the inhibitor). […]

[15] = target: T3, human activated coagulation factor X …; assay: as above
Procedure: as §3, §4

[16] = target: T7, chymase (human) (human, UniProt P23946 22-247); assay: enzyme inhibition assay, fluorogenic peptide substrate, 500 nM rSimukunin, 1.8 nM enzyme
T7 construct: mature
T7 sequence (looked up): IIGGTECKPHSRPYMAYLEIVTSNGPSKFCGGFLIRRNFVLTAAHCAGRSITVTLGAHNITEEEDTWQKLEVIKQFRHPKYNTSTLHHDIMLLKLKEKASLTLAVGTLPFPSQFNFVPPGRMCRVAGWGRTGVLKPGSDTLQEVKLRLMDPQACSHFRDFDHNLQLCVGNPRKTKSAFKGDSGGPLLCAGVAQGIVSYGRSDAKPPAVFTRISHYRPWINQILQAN
Procedure: Serine protease inhibition assays. rSimukunin (500 nM) was first pre-incubated with each enzyme for 10 min before the addition of the corresponding substrate. The amount of enzyme used in the assays was the lowest possible to give a linear substrate hydrolysis rate in the assays (r²>0.95). After incubation for 5 min at 30° C., substrate hydrolysis rate was followed in a Tecan Infinite M200 96-well plate fluorescence reader (Tecan group Ltd, Switzerland) using 365 nm excitation and 450 nm emission wavelength with a cutoff at 435 nm for 20 min at 30° C. Wells without enzyme were used to monitor spontaneous substrate hydrolysis and protease contamination in the inhibitor preparation. A t-test was used for the statistical analysis of the observed inhibition in the presence of 500 nM rSimukunin and when p<0.05, it was considered as statistically significant.
All enzymes used were of human origin and of the highest available purity. […]

[17] = target: T2, cathepsin G (human); assay: calculated by Cheng-Prusoff from the enzyme-inhibition IC50 and the substrate Km (250 uM general chymotrypsin substrate)
Procedure: as §3, §4

T3 sequence (P00742 41-179 limits assumed, chain 1 of 2): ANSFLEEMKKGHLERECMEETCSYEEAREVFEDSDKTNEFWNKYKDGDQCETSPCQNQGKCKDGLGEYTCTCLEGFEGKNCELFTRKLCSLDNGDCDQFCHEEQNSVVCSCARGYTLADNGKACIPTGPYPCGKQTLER
T3 sequence (P00742 235-488 limits assumed, chain 2 of 2): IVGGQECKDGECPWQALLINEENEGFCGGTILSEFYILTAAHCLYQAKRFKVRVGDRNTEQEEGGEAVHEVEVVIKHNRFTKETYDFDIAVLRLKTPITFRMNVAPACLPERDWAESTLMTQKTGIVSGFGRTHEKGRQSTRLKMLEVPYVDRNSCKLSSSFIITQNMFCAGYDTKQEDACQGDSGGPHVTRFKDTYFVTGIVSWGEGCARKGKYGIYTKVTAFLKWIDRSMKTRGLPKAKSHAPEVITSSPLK
coagulation Factor XIa (FXIa), sequence (P03951 19-625 limits assumed): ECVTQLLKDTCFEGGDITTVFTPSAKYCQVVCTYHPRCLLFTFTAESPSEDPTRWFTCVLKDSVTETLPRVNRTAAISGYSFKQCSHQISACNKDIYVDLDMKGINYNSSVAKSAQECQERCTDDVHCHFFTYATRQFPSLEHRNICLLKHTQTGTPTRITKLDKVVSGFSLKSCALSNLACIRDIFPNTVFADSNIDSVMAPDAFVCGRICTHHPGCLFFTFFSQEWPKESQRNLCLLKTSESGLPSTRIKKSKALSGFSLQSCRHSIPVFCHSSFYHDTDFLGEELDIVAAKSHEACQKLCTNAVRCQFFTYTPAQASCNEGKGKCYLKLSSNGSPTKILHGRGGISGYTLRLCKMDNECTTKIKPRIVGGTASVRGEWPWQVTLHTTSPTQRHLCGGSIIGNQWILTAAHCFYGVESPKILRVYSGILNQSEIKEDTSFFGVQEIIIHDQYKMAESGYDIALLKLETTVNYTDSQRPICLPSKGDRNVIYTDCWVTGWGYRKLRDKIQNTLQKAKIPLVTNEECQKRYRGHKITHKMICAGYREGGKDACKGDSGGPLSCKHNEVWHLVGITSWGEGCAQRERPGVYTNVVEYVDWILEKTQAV
plasmin (human), sequence (P00747 97-810): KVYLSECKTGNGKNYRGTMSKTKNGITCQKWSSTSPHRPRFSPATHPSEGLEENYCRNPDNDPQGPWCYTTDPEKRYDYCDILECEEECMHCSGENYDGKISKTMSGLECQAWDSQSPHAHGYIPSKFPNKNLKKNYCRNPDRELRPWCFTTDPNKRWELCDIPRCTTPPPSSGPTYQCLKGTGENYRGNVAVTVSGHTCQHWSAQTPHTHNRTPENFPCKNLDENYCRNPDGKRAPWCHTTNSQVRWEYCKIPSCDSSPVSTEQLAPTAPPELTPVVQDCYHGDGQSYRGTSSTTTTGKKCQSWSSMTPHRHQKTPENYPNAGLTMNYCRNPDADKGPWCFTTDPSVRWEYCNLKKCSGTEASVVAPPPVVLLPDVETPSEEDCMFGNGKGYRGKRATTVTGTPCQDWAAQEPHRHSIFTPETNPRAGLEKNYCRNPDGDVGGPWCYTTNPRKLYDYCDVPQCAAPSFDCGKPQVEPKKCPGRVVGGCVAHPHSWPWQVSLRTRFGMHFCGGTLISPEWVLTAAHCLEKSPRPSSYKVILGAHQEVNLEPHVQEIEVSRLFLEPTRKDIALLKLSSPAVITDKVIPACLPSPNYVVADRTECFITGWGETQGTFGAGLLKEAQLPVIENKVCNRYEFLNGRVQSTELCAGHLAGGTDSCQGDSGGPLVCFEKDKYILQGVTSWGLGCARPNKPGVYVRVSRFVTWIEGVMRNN
trypsin (sequencing grade, Roche) (human), sequence (P00760 24-246): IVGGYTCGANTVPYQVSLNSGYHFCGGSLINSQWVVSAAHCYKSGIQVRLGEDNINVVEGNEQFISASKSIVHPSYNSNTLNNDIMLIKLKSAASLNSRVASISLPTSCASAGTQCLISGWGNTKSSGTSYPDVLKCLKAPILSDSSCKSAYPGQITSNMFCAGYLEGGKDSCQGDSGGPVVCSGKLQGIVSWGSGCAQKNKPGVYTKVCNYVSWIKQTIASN
T6 sequence (P00742 41-488 limits assumed): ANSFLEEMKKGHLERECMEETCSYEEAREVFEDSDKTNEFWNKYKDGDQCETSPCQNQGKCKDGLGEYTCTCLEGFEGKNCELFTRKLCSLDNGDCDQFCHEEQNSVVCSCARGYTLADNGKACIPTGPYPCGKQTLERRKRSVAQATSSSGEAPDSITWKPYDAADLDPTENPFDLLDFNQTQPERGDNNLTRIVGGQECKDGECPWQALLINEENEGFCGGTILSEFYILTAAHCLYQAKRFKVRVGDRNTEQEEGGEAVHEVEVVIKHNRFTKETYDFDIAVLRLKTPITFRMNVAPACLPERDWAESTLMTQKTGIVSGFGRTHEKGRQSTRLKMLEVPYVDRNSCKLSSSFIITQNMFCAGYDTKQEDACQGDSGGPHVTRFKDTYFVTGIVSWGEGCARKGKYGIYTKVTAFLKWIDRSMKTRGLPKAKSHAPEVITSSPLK
kallikrein (human), sequence (P03952 20-638 limits assumed): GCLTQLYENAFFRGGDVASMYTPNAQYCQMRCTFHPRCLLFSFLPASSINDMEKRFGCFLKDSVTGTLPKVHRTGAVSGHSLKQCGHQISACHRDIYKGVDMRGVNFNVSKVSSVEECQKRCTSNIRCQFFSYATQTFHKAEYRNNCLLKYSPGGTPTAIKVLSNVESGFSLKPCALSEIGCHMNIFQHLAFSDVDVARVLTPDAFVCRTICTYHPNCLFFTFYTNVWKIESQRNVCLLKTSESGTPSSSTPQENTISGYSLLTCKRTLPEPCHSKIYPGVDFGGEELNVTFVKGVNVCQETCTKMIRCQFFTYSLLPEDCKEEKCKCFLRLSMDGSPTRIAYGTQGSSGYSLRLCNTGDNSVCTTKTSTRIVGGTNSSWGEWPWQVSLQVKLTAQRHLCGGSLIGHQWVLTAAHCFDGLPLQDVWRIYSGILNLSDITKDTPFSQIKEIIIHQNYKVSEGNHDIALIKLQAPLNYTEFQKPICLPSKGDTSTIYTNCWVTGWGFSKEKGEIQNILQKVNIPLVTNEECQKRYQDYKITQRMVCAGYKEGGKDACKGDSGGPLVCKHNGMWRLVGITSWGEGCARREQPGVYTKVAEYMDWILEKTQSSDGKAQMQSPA
skin β-tryptase (human), sequence (Q15661 31-275): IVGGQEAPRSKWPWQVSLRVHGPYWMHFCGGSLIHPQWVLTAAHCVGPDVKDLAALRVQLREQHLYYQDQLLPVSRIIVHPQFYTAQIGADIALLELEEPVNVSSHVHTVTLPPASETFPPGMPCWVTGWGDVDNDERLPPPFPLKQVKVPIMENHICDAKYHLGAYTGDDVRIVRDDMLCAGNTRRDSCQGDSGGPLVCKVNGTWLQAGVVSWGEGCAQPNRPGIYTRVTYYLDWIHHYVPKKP

B1: recombinant Simukunin (rSV-66), Simulium vittatum SV-66 without signal peptide, His-tagged, expressed in E. coli (other)
chain: QENVCNLPVDEGVCRALFKRFYYEPATDSCKEFYYGGCEGNGNRFKSKKECILKCQKNKQLIKTRKRKPKKTTKPPIPIISLD
notes: also called rSimukunin; WT rSimukunin; not shown: His tag(s) from vector pET-30 Ek/LIC ('C-terminal double His tags')
B1 was tested, and the “Ratio of IC50 to enzyme concentration” value [1] was 27.2, the “Ratio of IC50 to enzyme concentration” value [2] was 32.5 and the “Ratio of IC50 to enzyme concentration” value [3] was 161. For the same binder, the “Ratio of IC50 to enzyme concentration” value [4] was 1150, the “Ratio of IC50 to enzyme concentration” value [5] was 3790 and the “Ratio of IC50 to enzyme concentration” value [6] was 6680. The “Ratio of IC50 to enzyme concentration” value [7] was 52, the “Ratio of IC50 to enzyme concentration” value [8] was 945 and the binding result [9] was “no binding (tested: 200 nM)”. The binding result [10] was “no binding (tested: 200 nM)”, the binding result [11] was “no binding (tested: 200 nM)” and the Kd [12] was 3.07 nM. It also gave a koff [12] of 0.000303 s⁻¹, a kon [12] of 98700 M⁻¹ s⁻¹ and a Kd [13] of 0.4 nM. The koff [13] was 0.0173 s⁻¹, the kon [13] was 4.3e+07 M⁻¹ s⁻¹ and the Ki [14] was about 0.65 nM. For the same binder, the Ki [15] was about 2.1 nM, the binding result [16] was “binds” and the Ki [17] was 100 nM.
